Reference: patent publication US6362395

Biological target: calmodulin (unlabeled, as used in the gel mobility-shift and kinase assays of Example 2) (UniProt P04353)

lily CCaMK truncation mutant 1-356
Ca2+/calmodulin-dependent kinase activity (histone IIAS phosphorylation): retained Ca2+/calmodulin-dependent kinase activity at a substantially reduced level
